Test results reported in patent publication US20250172552A1 (ANN AND ROBERT H LURIE CHILDREN S HOSPITAL OF CHICAGO, published 2025).
Read-outs that look alike come from different tables or passages of the source.

T1: KDpeptide3
T1 construct: Synthetic peptide (Anaspec) coated on ELISA plates at 800 ng per well; also the base peptide of substitution scans; also called Kdpep3; KD3
T1 peptide: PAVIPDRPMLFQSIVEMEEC

T2: KDpeptide2
T2 construct: Synthetic peptide (Anaspec) coated on ELISA plates at 800 ng per well
T2 peptide: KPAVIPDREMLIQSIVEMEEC


Key:
[1] = target: T1, KDpeptide3; experiment: ELISA on coated synthetic peptide
[2] = target: T2, KDpeptide2; experiment: ELISA on coated synthetic peptides, direct comparison
[3] = target: T2, KDpeptide2; experiment: ELISA on coated synthetic peptide
[4] = target: T1, KDpeptide3; experiment: ELISA on coated synthetic peptide

Row | Binder | binding result [1] | binding result [2] | binding result [3] | binding result [4]
1 | KD5-2D7 (antibody, V domains shown) VH: EVQLVESGGGLVQPGGSLGLSCAASGFTFSNYWMHWVRQAPGKGLVWVSRINSDGSDTSYADSVKGRFTISRDNAENTLYLHMSSLRAEDTAVYYCARELGYGDYGMDVWGKGTTVTVS VL: QSVLTQPPSASGTPGQRVTISCSGSSSNIGSHSVIWYQQLPGTAPKLLVYSDNQRPSGVPDRFSGSKSGTSASLAISGLQSEDEADYYCAAWDDSLNHLHVVFGGGTKLTVL | binds | binds | – | –
2 | KD3-1C10 (antibody, V domains shown) VH: EVQLVESGGGLVQPGGSLRLSCAASGFTFSNHWMHWVRQAPGKGLLWVSRIDTGGSTTNYADSVKGRFTISRDSAKNTVYLQMNSLRAEDTAVYYCARGGLFYYGMDVWGQGTTVTV VL: EIVLTQSPGTLSLSPGERATLSCRASQTSSSTSLAWYQQKRGQAPRLLIYGASRRATGIPDRFSGSGSGTDFTLTISRLEPEDFAVYYCQQFSGSPAYTFGQGTKVEIK | binds | – | – | –
3 | KD12-1G7 (antibody, V domains shown) VH: EVQLVESGGGLVQPGGSLRLSCGASGFTVSGKYMTWARQAPEKGLEWVSAIYRGGGTYYADSVKGRFTISRDNSKNMLYLQMNSLRAEDTAVYYCGGSVMVSATDYWGQGTLVTV VL: not shown | binds | – | – | –
4 | KD12-2A10 (antibody, V domains shown) VH: EVQLVESGGGLVKPGGSLRLSCAASGFTFINAWMNWVRQAPGKGLEWVGLIKSKTDGGTIDYAAPVKGRFTISRDDSEKMLYLQMDSLKTEDTAVYYCTTMYGWKDARDYWGQGTLVTV VL: EIVLTQSPGTLSLSPGERATLSCRASQSVSSNLAWYQQKPGQAPRVLIYGASSRATGIPDRFSGSRSGTDFTLTISRLEPEDFAVYYCQRYDNSPRTFGQGTKVEIK | binds | – | – | –
5 | KD10-1A8 (antibody, V domains shown) VH: EVQLVESGGGLVQPGGSLRLSCAASGFTFSSYWMEWVRQAPGKGLVWVSHISSDGSVTRYVDSVKGRFTISRDNAKNTLYLQMNSLRAEDTGVYYCAKDLHWNALDVWGQGTMVTVS VL: DIVMTQTPLSLSVTPGQPASISCKSSQSLLHNDGKTFLHWYLQKPGQSPQLLIYEVSSRFSGVPDRFSGSGSGTDFTLKISRVEAEDVGVYYCMQGIHLPPTFGGGTKVEIKR | binds | – | – | –
6 | KD9-2H6 (antibody, V domains shown) VH: EVQLVESGGGLVKPGESLRLSCVGSGFTLTNAWMIWVRQTSGKGLEWVGRIKSKIDGGAIDYGAPVKGRFTISRDDTKNTVYLQMNSLQTDDTGVYFCTTDRYSTGYYGMDDYWGQGTLVTV VL: SYELTQPPSVSVSPGQTATITCSGDKLGDKYSFWYQQKPGQSPVVVIYQDSKRPSGIPERFSGSNSGNTATLTISGTQAMDEADYYCQVWDTDSAVFGTGTRVTV | – | – | no binding | no binding
7 | KD10-1G3 (antibody, V domains shown) VH: EVQLVESGGGLVQPGGSLKLSCAASGFSFSGAAMHWVRQSSGRGLEWLGRIRSKTNDYATAYAESLHGRFTISRDDAKNTAYLQMNRLKSEDTAIYYCTTVLSKGDHAVWLGPWGPGTLVTV VL: QPVLTQPPSSSASPGESARLTCTLPSDISVAASDIYWYQQKAGSPPNFLLYDPSDSHKGQDSGVPSRFSGSRDGSANSGFLLISGVQSEDEADYYCMVWPPNTVGVVFGGGTTLTV | binds | binds | – | –
8 | KD9-2A4 (antibody, V domains shown) VH: LVESGGGLVQPGGSLRLSCAASGFTFSSYAMHWVRQAPGKGLEFASAISSDGGTTYYANSVKGRFTISRDNSKNTLYLQMGSLRDEDMAVYYCARDDLSTSWDLDYWGQGTLVTV VL: QSALTQPASVSGSPGQSITISCTGTSSDVGGYNYVSWYQQHPGKAPKLMIYDVSNRPSGVSNRFSGSKSGNTASLTISGLQAEDEADYYCSSYTISSTNVFGTGTKVTVL | – | – | no binding | no binding
9 | KD1-2B1 (antibody, V domains shown) VH: EVQLVESGGGLVQPGGSLRLSCAASGFTFSSYWMHWVRQAPGKGLVWVSRINNDGSSTGYADSVEGRFTISRDNAKNTLYLQINSLRAEDTAVYYCARQDGHYYYSMDVWGQGTTVTV VL: QSALTQPRSVSGSPGQSVTISCTGTSSDVGGYNYVSWYQQHPGKAPKLMIYDVSERPSGVPARFSGSKSGNTASLTISGLQAEDEADYYCCSYAGNFRWVFGGGTKLTVL | binds | binds | – | –
10 | KD7-1B5 (antibody, V domains shown) VH: VQLVESGGGVVQPGRSLRLSCEASGFTFRSRAMHWVRQAPGKGLGWVAVIWYDGSNKYYADSVKGRFTISRDNSRNTLYLQMNSLRAEDTAVYYCARDLGSGFSLDYWGQGTLVTVS VL: QSVLTQPPSVSAAPGQKVTISCSGSSSNIGNNYVSWYQQLPGTAPKLLIYDNNKRPSGIPDRFSGSKSGTSATLGITGLQTGDEADYYCGTWDSSLSAEVFGGGTKLTVLG | binds | binds | – | –
11 | KD11-2E4 (antibody, V domains shown) VH: EVQLVESGGGVVQPGESLRLSCAASGVTFSSYWMHWVRQVPGKGLVWVARINIDGTSTTYADCVKGRFTISRDNAKNTLYLQMSSLRAEDTAVYYCATERGLLSGGRWHSSHFDYWGQGTLVTVS VL: DIQMTQSPSTLSASVGDRVTITCRASQSISSWLAWYQQKPGKAPKVLIYKTSSLESGVPSRFSGSGSGTEFTLTISSLQPDDFATYYCQQYDSSSLTWTFGQGTKVEIK | binds | binds | – | –
12 | KD1-1H8 (antibody, V domains shown) VH: EVQLVESGGGSVQPGGSLRLSCAASGFTFSNYWMHWVRQAPGKGLVWVSRLNIDGSNTFYADSVKGRFTISRDNAKNTLYLQMNSLRAEDTAVYYCVRGGSDSGDSVPFDLWGRGTLVTVS VL: EIVMTQSPATLSVSPGERATLSCRASQSVSSNLAWYQQNPGQAPRLLIYGASTRATGIPARFSGSGSGTEFTLTISSLQSEDFAVYYCQHYNNWPFTFGQGTKVEIK | binds | binds | – | –
13 | KD2-1D10 (antibody, V domains shown) VH: EVQLVESGGGLIHPGGSLRLSCAASGFTFSSYWMHWVRQAPGKGLVWVSHIKSDGSNTIYADSVKGRFTISRDNAKNTLYLQMNSLRAEDTAVYYCGRGRSLTPRSAIDYWGQGTLVTV VL: QSALTQPPSASGSPGQSVTITCTGTSSDVGGYNYVSWYQQHPGKAPKLMIYEVSKRPSGVPDRFSGSKSGNTASLTVSGLQAEDEADYHCSSFAGDNNSPVFGGGTKLTVL | binds | binds | – | –
14 | KD7-2H5 (antibody, V domains shown) VH: EVQLVESGGGLVQPGGSLRLSCAASGFTFSSYWMHWVRQAPGKGLVWVSRINSDGSSTSYADSVKGRFAISRDNAKNTLYLQMNSLRAEDTAVYYCARALGGWDIDYWGQGTLVTVS VL: not shown | binds | binds | – | –
